Each block holds one molecule with its values, some of them ahead of it.
Experiments:
[1] = target: class Ia RNR small subunit (Escherichia coli) (UniProt P69924); conditions: cited from earlier work
[2] = target: class Ia RNR small subunit (Homo sapiens) (UniProt P31350); conditions: cited from earlier work
[3] = target: T1, Bacillus subtilis class Ib ribonucleotide reductase NrdE (α subunit) (Bacillus subtilis, UniProt P50620 1-700); assay: SEC
T1 sequence (looked up): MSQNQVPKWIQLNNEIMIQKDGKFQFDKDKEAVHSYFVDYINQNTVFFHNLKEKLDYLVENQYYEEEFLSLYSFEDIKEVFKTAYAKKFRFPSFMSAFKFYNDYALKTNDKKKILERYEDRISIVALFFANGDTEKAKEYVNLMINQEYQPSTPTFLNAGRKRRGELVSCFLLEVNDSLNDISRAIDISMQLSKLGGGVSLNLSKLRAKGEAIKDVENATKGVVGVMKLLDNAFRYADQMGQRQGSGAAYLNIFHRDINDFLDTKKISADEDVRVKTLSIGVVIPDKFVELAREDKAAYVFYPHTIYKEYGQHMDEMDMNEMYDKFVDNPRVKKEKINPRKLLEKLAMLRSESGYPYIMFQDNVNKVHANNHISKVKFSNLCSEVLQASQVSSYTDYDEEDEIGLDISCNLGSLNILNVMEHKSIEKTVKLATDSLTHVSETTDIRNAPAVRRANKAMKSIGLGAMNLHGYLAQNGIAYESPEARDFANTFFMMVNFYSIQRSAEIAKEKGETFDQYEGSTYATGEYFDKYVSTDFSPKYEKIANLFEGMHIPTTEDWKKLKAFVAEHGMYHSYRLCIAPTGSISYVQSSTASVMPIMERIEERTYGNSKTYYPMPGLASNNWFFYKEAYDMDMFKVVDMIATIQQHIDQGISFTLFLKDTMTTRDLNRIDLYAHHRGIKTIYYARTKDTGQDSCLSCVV

[4] = target: the molecule itself; assay: SEC
[5] = target: the molecule itself; assay: AUC

Chain of class Ia RNR small subunit (Homo sapiens) (P31350 whole entry): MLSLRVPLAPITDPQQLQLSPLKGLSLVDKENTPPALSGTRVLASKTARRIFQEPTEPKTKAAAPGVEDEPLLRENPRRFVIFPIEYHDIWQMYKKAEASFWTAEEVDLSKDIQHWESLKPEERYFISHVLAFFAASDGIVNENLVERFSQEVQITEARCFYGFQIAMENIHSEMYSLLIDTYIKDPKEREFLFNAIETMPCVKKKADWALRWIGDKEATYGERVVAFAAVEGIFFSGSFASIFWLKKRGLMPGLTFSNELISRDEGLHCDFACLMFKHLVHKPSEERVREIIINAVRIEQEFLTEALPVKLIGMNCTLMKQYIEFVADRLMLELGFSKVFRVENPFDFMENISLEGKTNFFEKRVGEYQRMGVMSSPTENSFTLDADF
Chain of class Ia RNR small subunit (Escherichia coli) (P69924 2-376): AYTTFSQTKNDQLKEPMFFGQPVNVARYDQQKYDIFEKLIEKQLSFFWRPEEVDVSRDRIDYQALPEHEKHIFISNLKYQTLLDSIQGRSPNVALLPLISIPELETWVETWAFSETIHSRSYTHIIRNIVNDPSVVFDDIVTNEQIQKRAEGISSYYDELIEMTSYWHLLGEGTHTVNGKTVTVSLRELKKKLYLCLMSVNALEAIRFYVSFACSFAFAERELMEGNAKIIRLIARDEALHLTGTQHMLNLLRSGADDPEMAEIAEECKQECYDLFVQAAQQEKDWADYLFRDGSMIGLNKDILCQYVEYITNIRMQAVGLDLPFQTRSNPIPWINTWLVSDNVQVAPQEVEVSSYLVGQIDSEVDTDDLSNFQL

Molecule: class Ia RNR large subunit (from UniProt P00452)
Kd [1]: 200 nM

Molecule: class Ia RNR large subunit (from UniProt P23921)
Kd [2]: 200 nM

Now from value to molecule, other results behind:

binding result [3]: binds
B1: Bacillus subtilis holo-Fe^III2-Y· NrdF (β subunit, diferric-tyrosyl radical cofactor) (enzyme, UniProt P50621 1-329, looked up)
chain: MTKIYDAANWSKHEDDFTQMFYNQNVKQFWLPEEIALNGDLLTWKYLGKNEQDTYMKVLAGLTLLDTEQGNTGMPIVAEHVDGHQRKAVLNFMAMMENAVHAKSYSNIFMTLAPTETINEVFEWVKQNKYLQKKAQMIVGLYKAIQKDDEISLFKAMVASVYLESFLFYSGFYYPLYFYGQGKLMQSGEIINLILRDEAIHGVYVGLLAQEIYNKQTEEKKAELREFAIDLLNQLYENELEYTEDLYDQVGLSHDVKKFIRYNANKALMNLGFDPYFEEEDINPIVLNGLNTKTKSHDFFSMKGNGYKKATVEPLKDDDFYFEDEKEQI
modifications: tyrosyl radical (about 1 Y· per β2); Fe^III2 cofactor (about 4 Fe per β2)
stoichiometry N [4]: 2

binding result [3]: binds
B2: Bacillus subtilis holo-Mn^III2-Y· NrdF (β subunit, dimanganic-tyrosyl radical cofactor) (enzyme, UniProt P50621 1-329, looked up)
chain: B1 chain
modifications: tyrosyl radical (about 1 Y· per β2); Mn^III2 cofactor (about 4 Mn per β2)
stoichiometry N [5]: 2

From publication PMC3985883 (Biochemistry, 2014)
